Measured values reported in doi:10.1101/2025.03.16.643542 (bioRxiv, 2025).
One block for each binder: values may come before it.

Target: epidermal growth factor receptor (EGFR) on EGFR^hi A431 cells (Homo sapiens, A431 cells, UniProt P00533)
Assay: flow cytometry on cells

EC50: 76.9 nM
B1: nanobody 5B1 (VHH)
VHH: QVQLQESGGGLVQAGDSLRLSCAASGRTFSTYTMGWFRQAPGKEREFVAGIGYSDDNTYYTDSVKGRFTVSRGSAKNTVYLQMNSLKPEDTAVYYCAARVGDVVFTIADNYAYWGQGTQVTVSS

EC50: 4.7 nM
B2: nanobody 5B12 (VHH)
VHH: QVQLQESGGGLVQTGDSLRLSCAASGGTLTSYNMGWFRQAPGKDREFVAGISWSGGTGTYYADSVKGRFTISTDNAKNTVYLQMDSLKPDDTAVYYCAVRRRAYSVYTRPGLYDYWGQGTQVTVSS
